Assay [1] addresses T1, FGFR3 recombinant protein (isoform not given) (Homo sapiens (Human), UniProt P22607 23-375, limits assumed).
T1 construct: also called FGFR3 antigen
T1 sequence: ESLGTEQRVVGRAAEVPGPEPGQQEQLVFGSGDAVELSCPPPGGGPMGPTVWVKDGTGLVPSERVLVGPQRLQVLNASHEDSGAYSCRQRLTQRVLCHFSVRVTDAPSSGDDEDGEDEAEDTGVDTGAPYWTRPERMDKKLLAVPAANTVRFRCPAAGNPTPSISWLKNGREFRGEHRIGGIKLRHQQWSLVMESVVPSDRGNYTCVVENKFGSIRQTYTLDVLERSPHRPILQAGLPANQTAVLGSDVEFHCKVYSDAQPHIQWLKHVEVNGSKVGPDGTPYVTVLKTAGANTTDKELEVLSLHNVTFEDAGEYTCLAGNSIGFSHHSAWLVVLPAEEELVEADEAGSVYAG
Nature of the assay: affinity ELISA on hFGFR3, lower left panel. Here is the method:
(§1) Affinity ELISA was performed to determine the binding ability of the produced antibody (IgG) to the FGFR3 antigen. A 96-well plate (4° C., overnight) was coated with […] of FGFR3 antigen and blocked with 3% skim milk (PBS) (room temperature, 1 hour). Then, the plate was treated with previously serially diluted antibody samples in duplicate and triplicate, and reacted at room temperature for 1 hour. Then, the result was washed with PBST 2 to 3 times, treated with the HRP-conjugated anti-human Fab antibody diluted in skim milk (room temperature, 1 hour), and washed again with PBST, and a color reaction (TMB substrate) was performed. Then, O.D. was measured at 450 nm.
The antigen affinity of the synthesized ADC sample (TOPOI-conjugated ADC) was determined by ELISA and the determination was performed in the same manner as the affinity ELISA performed in the present invention. […] In addition, the high purity physical properties of the prepared ADC were identified through SEC-HPLC analysis.
On the technique in general: ELISA stands for enzyme-linked immunosorbent assay.

The target in assay [2] is T2, monkey FGFR3 recombinant protein (90313-C02H, Sino Biological) (cynomolgus monkey, UniProt A0A2K5V1U5 23-376).
T2 construct: Bought recombinant antigen; also called cynomolgus monkey FGFR3; cyno FGFR3
T2 sequence: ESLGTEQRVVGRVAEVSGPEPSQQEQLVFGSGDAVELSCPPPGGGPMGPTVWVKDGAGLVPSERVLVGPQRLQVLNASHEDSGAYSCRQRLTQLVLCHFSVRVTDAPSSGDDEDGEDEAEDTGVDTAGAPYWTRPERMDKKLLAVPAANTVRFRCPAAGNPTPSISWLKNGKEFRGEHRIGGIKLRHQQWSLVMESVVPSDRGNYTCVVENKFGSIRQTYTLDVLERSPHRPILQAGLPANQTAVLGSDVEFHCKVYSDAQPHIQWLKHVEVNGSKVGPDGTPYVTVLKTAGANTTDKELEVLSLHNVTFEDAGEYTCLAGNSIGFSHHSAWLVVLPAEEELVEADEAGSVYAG
Nature of the assay: SPR (Biacore), antigen immobilised 92 RU, antibody injected.

Assay [3] has as its target T3, FGFR3 Ig domain II with Fc tag (UniProt P22607 151-244).
T3 construct: domain: FGFR3 Ig domain II; Recombinant domain made in mammalian cells; also called domain No. 2
T3 sequence: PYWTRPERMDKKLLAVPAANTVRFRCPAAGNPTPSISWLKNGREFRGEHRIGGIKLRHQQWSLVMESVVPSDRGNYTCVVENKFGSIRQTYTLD
Nature of the assay: FGFR3 Domain ELISA, AMB302#1.2, bar Domain#2. Here is the method:
(§2) FGFR3 is composed of three domains, so each domain (FGFR3 Ig domain I, domain II, domain III) is attached with an Fc tag to analyze the FGFR3-binding domain of the discovered antibody, and produced and purified through a mammalian cell protein expression system (FIG. 9C). Analysis of the binding ability of the antibody to the purified domain was performed in the same manner as the ELISA described above. 1 μg/ml of an antigen was coated and treated with the antibody to induce a TMB color reaction. […] However, the epitope of the comparative antibody is included in domain No. 2, which was conducted according to the present invention. In addition, ligands of FGF1 and FGF9, and FGFR3 have been reported to bind to Ig domain II and domain III of FGFR3. Based on this, competition ELISA assay was conducted. […] This supports binding of F309 antibody to the aforementioned FGFR3 Ig domain I (FIG. 9A).
(§3) The epitope domain mapping performed above was also performed on the affinity matured antibody F309 #SSM236 (hereinafter referred to as AMB302 #1.2). […] The antibody was also found to have specific binding ability to human/cyno FGFR3 (FIG. 17).

Assay [4] has as its target T4, human FGFR3 IIIc recombinant protein (766-FR-050, R&D) (human, UniProt P22607 23-375).
T4 construct: Bought recombinant antigen; also called FGFR3-IIIc (Human)
T4 sequence (looked up): T1 sequence
Nature of the assay: ELISA on humanFGFR3-IIIc. Here is the method: as §1
(§4) The binding ability of the produced antibody (IgG) to human FGFR3 IIIb (1264-FR-050, R&D), IIIc (766-FR-050, R&D), mouse FGFR3 (9089-FR, R&D), and monkey FGFR3 (90313-C02H, Sino Biological) antigens was determined in the same manner as above.
as §3

Assay [5] deals with T5, human FGFR3 IIIb recombinant protein (1264-FR-050, R&D) (human, UniProt P22607-2 23-377).
T5 construct: Bought recombinant antigen; also called rhFGFR3-IIIb; FGFR3-IIIb (Human)
T5 sequence (looked up): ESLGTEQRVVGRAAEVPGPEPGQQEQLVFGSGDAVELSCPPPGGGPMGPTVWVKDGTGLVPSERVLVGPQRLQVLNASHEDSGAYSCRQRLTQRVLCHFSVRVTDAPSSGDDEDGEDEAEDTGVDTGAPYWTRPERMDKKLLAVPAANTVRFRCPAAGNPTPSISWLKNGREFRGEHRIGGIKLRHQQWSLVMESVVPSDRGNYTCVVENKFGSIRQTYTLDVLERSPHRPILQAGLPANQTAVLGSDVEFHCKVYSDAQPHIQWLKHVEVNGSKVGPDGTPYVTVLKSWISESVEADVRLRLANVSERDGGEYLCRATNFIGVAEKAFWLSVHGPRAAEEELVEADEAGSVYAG
Put plainly: SPR (Biacore), antigen immobilised 276.2 RU, antibody injected. (In general: Surface plasmon resonance follows binding to a sensor surface in real time, without labels.)

The target in a further assay is T6, Domain#3 (human, UniProt P22607).
T6 construct: single domain fused to human IgG1 Fc; also called FGFR3 Domain 3; FGFR3 Ig domain III with Fc tag
T6 sequence (Fc fusion chain): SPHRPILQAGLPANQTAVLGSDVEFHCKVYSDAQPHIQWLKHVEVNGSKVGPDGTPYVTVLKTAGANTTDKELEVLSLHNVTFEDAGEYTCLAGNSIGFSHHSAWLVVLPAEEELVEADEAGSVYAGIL
Put plainly: FGFR3 Domain ELISA, AMB302#1.2, bar Domain#3. The protocol: as §2, §3

Assay [6] concerns the target T2, monkey FGFR3 recombinant protein …. Put plainly: ELISA on cynoFGFR3. Here is the method: as §1, §4, §3
For assay [7], the target named is T5, human FGFR3 IIIb recombinant protein …. Nature of the assay: direct-binding ELISA on rhFGFR3-IIIb, 2' screening, plate 1 (row head prints IC50).
Assay [8] concerns the target T4, human FGFR3 IIIc recombinant protein …. Put plainly: SPR (Biacore), antigen immobilised 74.5 RU, antibody injected.

The values below come from patent publication US20240101684A1 (AIMED BIO, published 2024).

By EC50 (read off the curve) is commonly meant the midpoint of the concentration-response curve. The term Kd denotes the concentration at which binding is half-saturated. As a reminder, the EC50 is the concentration that produces a half-maximal response.

B1: F309#SSM236 (antibody, V domains shown)
VH: EVQLLESGGGLVQPGGSLRLSCAASGFTFSSYDMSWVRQAPGKGLEWVSGIYSGDGSIYYADSVKGRFTISRDNSKNTLYLQMNSLRAEDTAVYYCAKDGPMNEESRFDYWGQGTLVTVSS
VL: QSVLTQPPSASGTPGQRVTISCSGSSSNIGNNYVSWYQQLPGTAPKLLIYADSKRPSGVPDRFSGSKSGTSASLAISGLRSEDEADYYCASWDYSLSGYVFGGGTKLTVL
notes: also called AMB302 #1.2; AMB302#1.2
With B1, the results for the 50% effective concentration (EC50 (read off the curve)) in assay [1], in [4] and in [6] were around 0.4 nM, around 0.3 nM and around 0.3 nM, respectively. The Kd was 0.755 nM in [2], 0.59 nM in [5] and 0.309 nM in [8]. The binding result (in assay [3]; with Domain#3) was “no binding” in each case. Moreover, the EC50 in [7] amounted to 0.753 nM.
